Legend:
Settings in all cases: label: 5' biotin
[1] = molecular target: Glycated human serum albumin (GHSA) (Homo sapiens, UniProt P02768 P02768:25-609); test: EMSA; unit as printed (umole); 25 C 1 h; also EMSA positive in Table 6 and direct ELISA positive
Experimental: Step 5: Aptamer analysis using Phototope®-Star Detection Kit (New England Biolabs) Nylon membrane was removed from the transferring set up and put in the clear plastic container containing solution A (5% Sodium Dodecyl Sulfate (SDS), 125 mM NaCl, 25 mM Sodium Phosphate, pH 7.5). The system was incubated at room temperature for 5 minutes with gentle shaking. The solution was discarded and 10 µL of streptavidin in 20 mL of solution A was added in the reaction container and incubated at room temperature for 5 minutes with gentle shaking. The solution was discarded. Then the membrane was washed 3 times by using solution B (1:10 of solution A in steriled water) with gentle shaking for 5 min. Then the washing buffer was discarded before the next round washing. […] in 20 mL of solution A was added in the container. Then the system was incubated at room temperature for 5 minutes with gentle shaking. Then the solution is discarded. The membrane was washed 3 times by solution C (10 mM Tris HCl, 10 mM NaCl, 1 mM […], pH 9.50) with gentle shaking and then solution is discarded. […]
The quantitative binding of G8 aptamer from this invention and clone 9 aptamer from the previous study were analyzed by electromobility shifted assay (EMSA) and results were compared. […]

[2] = molecular target: T1, Human serum albumin (HSA) (Homo sapiens, UniProt P02768 P02768:25-609); test: ELONA; indirect ELISA: + at 200, 2, 0.2 nM, - at 20 nM; PBST, room temperature
T1 sequence (P02768 25-609, one chain of several): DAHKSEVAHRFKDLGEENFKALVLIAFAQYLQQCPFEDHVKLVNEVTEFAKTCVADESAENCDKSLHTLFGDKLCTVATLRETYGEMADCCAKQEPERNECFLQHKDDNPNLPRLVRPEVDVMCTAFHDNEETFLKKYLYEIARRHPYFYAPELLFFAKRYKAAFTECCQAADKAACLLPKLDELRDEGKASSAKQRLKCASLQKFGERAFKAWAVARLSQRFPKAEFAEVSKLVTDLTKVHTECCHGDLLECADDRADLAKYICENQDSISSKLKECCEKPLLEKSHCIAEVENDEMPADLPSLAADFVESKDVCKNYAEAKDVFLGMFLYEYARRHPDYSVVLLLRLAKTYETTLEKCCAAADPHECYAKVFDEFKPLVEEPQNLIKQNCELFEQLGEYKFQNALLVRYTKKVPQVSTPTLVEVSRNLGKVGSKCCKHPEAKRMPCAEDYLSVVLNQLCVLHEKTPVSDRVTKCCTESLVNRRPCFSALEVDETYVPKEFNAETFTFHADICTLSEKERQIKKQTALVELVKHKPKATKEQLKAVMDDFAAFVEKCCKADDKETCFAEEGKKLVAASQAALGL
Excerpt: The binding assay of selected aptamers against HSA and aptamers against GHSA is deteimined by using Indirect Enzyme-Linked Immunosorbent Assay (Indirect ELISA) and Direct Enzyme-Linked Immunosorbent Assay (Direct ELISA), as described below. 3.1. Indirect Enzyme-Linked Immunosorbent Assay (Indirect ELISA) The principle of this experiment is based on two antibodies, which are antibodies against 5' biotinylated aptamer and antibodies against the first antibody. The second antibody is conjugated with horseradish peroxidase enzyme (HRP), which can changes TMB color from blue to be yellow. The yellow color intensity is direct indicator for the target protein concentration. Random selected aptamers in Table 5 and Table 6 were chosen for analysis using this method. Indirect ELISA Protocol Step 1: 0.8 μg of BSA or HSA or GHSA was added in 50 μl of 0.05 M carbonate buffer in 96 well plate (50 μL/well) and incubated at 4° C. for 1 night. In this process, all proteins will be coated on the 96 well plate.
Step 2: The reaction from step 1 was washed 5 times with Phosphate buffer (PBST) (0.05% Tween) using ELISA washing machine (Fluido 2) and tapped for 3-5 times.
Step 8: 50 μL of 0.6 M H_2SO_4 was added in the reaction and immediately measured the $OD_{450\ nm}$ using spectrophotometer.

[3] = molecular target: T1, Human serum albumin (HSA); test: EMSA; 25 C 1 h
Experimental: (§1) After that the reaction was incubated at 4° C. for 1 minutes before use. Step 2: 1 µL HSA was mixed with 9 µL of aptamer against HSA and 1 µL of 0.4 µg/µL GHSA was mixed with 9 µL of aptamer against GHSA. Step 3: The reaction from step 2 was incubated at 25° C. for 1 hour and analyzed on 8% polyacrylamide gel at 100 V for 30 minutes. Step 4: Aptamers on the polyacrylamide gel from step 3 were transferred to nylon membrane (Amersham Hybond-N+; GE Healthcare). Classical DNA/RNA transferring method was used. The transferring buffer was SSC (150 mM […] and 15 mM Sodium citrate, pH 7.0) and incubation time was 12 h. Step 5: Aptamer analysis using Phototope®-Star Detection Kit (New England Biolabs) Nylon membrane was removed from the transferring set up and put in the clear plastic container containing solution A (5% Sodium Dodecyl Sulfate (SDS), 125 mM NaCl, 25 mM Sodium Phosphate, pH 7.5). The system was incubated at room temperature for 5 minutes with gentle shaking. The solution was discarded and 10 µL of streptavidin in 20 mL of solution A was added in the reaction container and incubated at room temperature for 5 minutes with gentle shaking. The solution was discarded. Then the membrane was washed 3 times by using solution B (1:10 of solution A in steriled water) with gentle shaking for 5 min. […]

[4] = molecular target: T1, Human serum albumin (HSA); test: EMSA; 25 C 1 h; indirect ELISA also + at 0.2-200 nM (Table 9)
Experimental: as §1

Sequence of Glycated human serum albumin (GHSA) (P02768 25-609, one chain of several): as above

GGTGCGGTTCGTGCGGTTGTAGTACTCGTGGCCGATAGAGGTAGTTTCG (ssDNA) [G8]
binding result [1]: binds

B1: clone 9 (ssDNA)
DNA: TAACTCACTCCATACTCACTTGCTGATTCGCCAACAACACACCCTTAAACAGTCCC
binding result [2]: binds

B2: H8 (ssDNA)
DNA: ATACCAGCTTATTCAATTCCCCCGGCTTTGGTTTAGAGGTAGTTGCTCATTACTTGTACGCTCCGGATGAGATAGTAAGTGCAATCT
binding result [3]: binds

B3: H14 (ssDNA)
DNA: ATACCAGCTTATTCAATTCGCGCACATATACAGGGCTTTACCAGCGGGGAAGGTTAGCGACGCGAGGGGGAGATAGTAAGTGCAATCT
binding result [4]: binds
